Reference: patent publication US11673916B2, “Neuroprotective peptides and methods of their use” (University of Pittsburgh—Of the Commonwealth System of …, priority 2020, dated 2023)

Assays:
[1] = molecular target: T1, Kv2.1-mediated potassium currents (Rattus norvegicus, UniProt P15387); test: Whole-cell voltage clamp of Kv2.1-mediated potassium current densities with or without TBOA; type: cell-based; conditions: voltage step from -80 mV to 30 mV, mean±SEM (FIG. 4A)
T1 construct: endogenous in cells; host or cells: primary rat cortical neurons
T1 sequence (P15387 1-857): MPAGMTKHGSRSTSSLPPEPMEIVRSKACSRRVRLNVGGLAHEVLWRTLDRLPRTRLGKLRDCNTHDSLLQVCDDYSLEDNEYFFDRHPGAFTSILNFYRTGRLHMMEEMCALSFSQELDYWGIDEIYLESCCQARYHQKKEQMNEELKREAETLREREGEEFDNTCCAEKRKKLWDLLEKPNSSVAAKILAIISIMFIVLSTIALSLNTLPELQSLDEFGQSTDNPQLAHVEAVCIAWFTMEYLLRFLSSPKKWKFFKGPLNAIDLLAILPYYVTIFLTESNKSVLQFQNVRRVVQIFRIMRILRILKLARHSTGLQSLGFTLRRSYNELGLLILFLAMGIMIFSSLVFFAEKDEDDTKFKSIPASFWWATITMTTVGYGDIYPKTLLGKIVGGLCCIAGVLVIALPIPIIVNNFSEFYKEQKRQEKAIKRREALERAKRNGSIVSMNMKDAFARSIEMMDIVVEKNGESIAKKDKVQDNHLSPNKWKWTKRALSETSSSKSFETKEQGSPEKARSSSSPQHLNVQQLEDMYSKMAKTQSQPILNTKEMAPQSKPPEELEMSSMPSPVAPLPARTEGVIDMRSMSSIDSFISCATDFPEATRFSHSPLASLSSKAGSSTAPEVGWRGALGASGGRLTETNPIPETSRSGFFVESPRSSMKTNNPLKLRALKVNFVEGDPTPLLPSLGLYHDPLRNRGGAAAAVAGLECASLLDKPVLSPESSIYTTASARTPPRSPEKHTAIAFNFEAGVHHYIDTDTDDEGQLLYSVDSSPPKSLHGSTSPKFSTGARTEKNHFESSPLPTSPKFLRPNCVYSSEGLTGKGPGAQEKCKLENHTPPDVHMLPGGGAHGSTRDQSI

[2] = molecular target: T2, Kv2.1 surface clusters (Rattus norvegicus, UniProt P15387); test: Kv2.1 surface cluster density in live Kv2.1-GFP-transfected cortical neurons treated with TAT-linked peptides; type: cell-based
T2 construct: expressed in transfected cells; host or cells: primary rat cortical neurons (E16-17 Sprague-Dawley), Lipofectamine 2000
T2 sequence (P15387 1-857): T1 sequence (P15387 1-857)
Method: In vitro experiments utilized primary cortical neuronal cultures prepared from embryonic day 16-17 Sprague-Dawley rats of either sex in a protocol described previously (McCord et al., J Physiol (Lond). 592: 3511-3521, 2014). Timed-pregnant rats (Charles River Laboratories, Wilmington, Mass.) were sacrificed by CO2 inhalation. Embryonic cortices were dissociated with trypsin (0.6 mg/mL) and cells plated in sterile 6-well plates on poly-L-ornithine-coated glass coverslips at a density of 670,000 cells per well. Cytosine arabinoside (1-2 μM) was utilized to inhibit non-neuronal proliferation on day 14 in vitro (DIV); cultures were utilized at 21-25 DIV.
; Invitrogen, Carlsbad, Calif.). […]; Thermo Fisher Scientific, Waltham, Mass.). […]. Cultures were utilized 18-24 hours following transfection. cDNA amounts for each transfection experiment are described below for each figure. FIG. 1: 0.375 μg/well Kv2.1-GFP plasmid, 0.495 μg/well pcDNA3 vector plasmid, and 0.63 μg/well of either DP-1 or Sc-1, or Kv2.2 CT-expressing plasmid. FIGS. 2, 8, 9, 10, 12: 0.375 μg/well Kv2.1-GFP plasmid, 0.15 μg/well tdTomato plasmid (from Gerhart Ryffel; Addgene plasmid #30530), and 0.975 μg/well pcDNA3 vector plasmid.
To analyze Kv2.1 distribution in live primary cortical neurons, cells were transfected with both a tdTomato construct and a GFP-tagged Kv2.1 construct (O'Connell, et al., J Neurosci. 26: 9609-9618, 2006) and imaged on a Nikon A1+ confocal microscope (Nikon, Tokyo, Japan). Cells were chosen at random by looking only at the tdTomato signal (561 nm), in order to avoid bias. At least three separate culture dates were used per experiment and three coverslips were transfected per condition each time. For these experiments, “n” refers to the total number of cells imaged. Five to 15 optical sections (0.5 μm) capturing the cell surface were obtained of single cells at 60× magnification (Schulien et al., J Physiol (Lond). 594: 2647-2659, 2016), creating a maximum-intensity projection (MAX-IP) of Kv2.1-GFP distribution. To analyze Kv2.1 distribution in the cerebral cortex of fixed brain slices, 51-54 image fields were obtained at 60× magnification across 18 sections from three fixed mouse brains per treatment (total of 6 animals). Image fields were captured by first focusing on an area of superficial cortex closest to the cover glass. Next, 24 optical sections (0.5 μm) were obtained moving deeper into the tissue in order to produce a 12 μm maximum-intensity projection for analysis of Kv2.1 distribution. Laser power, HV (gain), offset, pinhole size, and all camera parameters were kept identical between all samples in a given experiment. Nikon Instruments Software Advanced Research (NIS-Elements AR) was utilized to analyze GFP-tagged Kv2.1 channel cluster distribution. For live images of transfected neurons, object count parameters were customized to define a Kv2.1 cluster as an area of high intensity GFP fluorescence (compared to background), measuring 0.05 μm^2 or larger (Schulien et al., J Physiol (Lond). 594: 2647-2659, 2016). Kv2.1 cluster density was calculated by normalizing the number of Kv2.1 clusters counted to the somatic area of each neuron (#Kv2.1 clusters/μm^2). Due to high variability in GFP-Kv2.1 expression between individual neurons, intensity thresholding required cell-specific local-background subtraction. In each neuron analyzed, two populations on Kv2.1-GFP expression were first noted—(a) highly localized signals of clustered Kv2.1 channels, and (b) diffuse background staining that represents freely-dispersed, conducting Kv2.1 channels on the plasma membrane. A small region of interest (ROI) within region (b) was set as the background subtraction standard of the image, creating an optimal signal-to-noise ratio for clustered Kv2.1 channels. […]

[3] = 10 μM peptide + TBOA (60 μM), 3-5 hours after treatment
[4] = 3 μM peptide, two-hour treatment, mean±SEM (FIG. 2B)
[5] = 10 μM peptide, two-hour treatment, mean±SEM (FIG. 2B)

Row | Sequence | mean Kv2.1-mediated potassium current density [1, 3] [pA/pF] | mean Kv2.1-mediated potassium current density ([1]; 10 μM peptide without TBOA) [pA/pF] | mean Kv2.1 surface cluster density [2, 4] | mean Kv2.1 surface cluster density [2, 5] | mean Kv2.1 surface cluster density ([2]; 10 μM, 2 h after initiation of treatment, mean+/-SEM (FIG. 9)) | mean Kv2.1 surface cluster density ([2]; 10 μM, 24 h after initiation of treatment, peptide removed after two hours, mean+/-SEM (FIG. 9)) | time-course of Kv2.1 surface cluster dispersal ([2]; 10 μM, before, 60 and 120 minutes post-treatment (FIG. 8)) | concentrations at which effective as in vitro declustering tool ([2]; hypothesized from the 3 μM and 10 μM results) [µM]
1 | YGRKKRRQRRRDFSSIST [TAT-Sc-2, TAT-linked scramble control peptide] | 130.80±9.43 | 71.42±10.27 | 0.15±0.01 #Kv2.1 clusters/μm^2 of neuronal soma | 0.16±0.02 #Kv2.1 clusters/μm^2 of neuronal soma | – | – | – | –
2 | YGRKKRRQRRRSIDSFTS [TAT-DP-2, TAT-linked declustering peptide 2] | 65.68±12.07 | 66.86±4.76 | 0.07±0.02 #Kv2.1 clusters/μm^2 of neuronal soma | 0.08±0.01 #Kv2.1 clusters/μm^2 of neuronal soma | 0.06±0.01 #Kv2.1 clusters/μm^2 of neuronal soma | 0.09±0.01 #Kv2.1 clusters/μm^2 of neuronal soma | time-dependent | 3 to 10
